The values below come from patent publication US20230201308A1, “TREATMENT OF CORONAVIRUS INFECTION WITH […]” (Eiger Biopharmaceuticals, Inc., priority 2020, published 2023).

The assay deals with SARS-CoV-2.

Read-outs that look alike come from different tables or passages of the source.

B1: pegylated interferon lambda-1a (protein)
chain: MKPTTTGKGCHIGRFKSLSPQELASFKKARDALEESLKLKNWSCSSPVFPGNWDLRLLQVRERPVALEAELALTLKVLEAAAGPALEDVLDQPLHTLHHILSQLQACIQPQPTAGPRPRGRLHHWLHRLQEAPKKESAGCLEASVTFNLFRLLTRDLKYVADGNLSLRTSTHPEST
modifications: PEG
notes: 180 mcg subcutaneous injection
As for B1, the “risk reduction by dominant variant” value (August 2021 to December 2021, Delta predominant) was found to be 46%. The “risk reduction by dominant variant” value (December 2021 to February 2022, Omicron dominant) was found to be 83%. Also, the “# events (variant analysis)” value (Full Study, June 2021-February 2022, N 916) is recorded as 916 (25). Also, the “risk reduction by dominant variant” value (June 2021 to August 2021, Gamma predominant) is on record as 25%. For the setting “human, in vivo”, the “HR, all-cause mortality or hospitalization due to COVID-19, Time-to-Event analysis” value was found to be 0.00; the “RR, all-cause mortality or hospitalization due to COVID-19” value was found to be 0.14; the “estimated effect across variants” value is recorded as “beneficial across all variants”. Further, the “efficacy across SARS-CoV-2 variants” value (viral sequencing on all patients) was “pan-variant efficacy in all variants tested, including omicron”.
